What was measured:
[1] = molecular target: c-Myc^1-331 labelled at the four N-terminal sites in the MB0–MBII region (fluorescence anisotropy); experiment: fluorescence polarisation; steady-state fluorescence anisotropy of the A488 dye on c-Myc in the donor-only samples with unlabeled AurA, same plates as for the lifetime measurements; excitation 470 nm, emission 516 nm; fit to a 1:1 binding model
[2] = molecular target: c-Myc^1-88 labelled with A488 on C70, phosphorylated on T58 and S62 (UniProt P01106); experiment: as above
[3] = molecular target: c-Myc^1-331 single-cysteine construct C70, labelled with Alexa 488, phosphorylated on T58 and S62; experiment: FRET or BRET; time-resolved fluorescence lifetime plate reader; Alexa 488-labelled c-Myc constant at 50 nM, DABCYL-labelled AurA titrated 0-12.8 uM; 384-well plates, room temperature, at least 30 min
[4] = molecular target: c-Myc^1-331 labelled at the four N-terminal sites in the MB0–MBII region (FRET); experiment: as above

Molecule | Kd [1] [nM] | fold enhancement of binding affinity over unphosphorylated c-Myc 1-88 [2] [fold] | fold enhancement of binding affinity over unphosphorylated c-Myc 1-331 [3] [fold] | Kd [4] [nM]
Aurora A kinase domain (AurA^122-403), unlabeled (from UniProt O14965 122-403) (domain or fragment) | 2000 to 3000 | 3 |  | 
Aurora A kinase domain (AurA^122-403), cysteine-lite, labelled with dabcyl acceptor (domain or fragment, DABCYL-Plus C2 maleimide on the cysteine introduced by L225C) ESKKRQWALEDFEIGRPLGKGKFGNVYLAREKQSKFILALKVLFKAQLEKAGVEHQLRREVEIQSHLRHPNILRLYGYFHDATRVYLILEYAPLGTVYRELQKCSKFDEQRTATYITELANALSYCHSKRVIHRDIKPENLLLGSAGELKIADFGWSVHAPSSRRTTLSGTLDYLPPEMIEGRMHDEKVDLWSLGVLCYEFLVGKPPFEANTYQETYKRISRVEFTFPDFVTEGARDLISRLLKHNPSQRPMLREVLEHPWITANSSKPSNSQNKESASKQS |  |  | 2 | 2000 to 3000
